# Experimental data: article PMC8260793, “A split protease-E. coli ClpXP system quantifies protein–protein interactions in Escherichia coli cells” (Communications Biology, 2021)
# B1: Cas3 of E. coli K12 Type I-E CRISPR/Cas complex [E. coli K12] / Cas7 of E. coli K12 Type I-E CRISPR/Cas complex [E. coli K12] (parent complex)
# chain 1: MEPFKYICHYWGKSSKSLTKGNDIHLLIYHCLDVAAVADCWWDQSVVLQNTFCRNEMLSKQRVKAWLLFFIALHDIGKFDIRFQYKSAESWLKLNPATPSLNGPSTQMCRKFNHGAAGLYWFNQDSLSEQSLGDFFSFFDAAPHPYESWFPWVEAVTGHHGFILHSQDQDKSRWEMPASLASYAAQDKQAREEWISVLEALFLTPAGLSINDIPPDCSSLLAGFCSLADWLGSWTTTNTFLFNEDAPSDINALRTYFQDRQQDASRVLELSGLVSNKRCYEGVHALLDNGYQPRQLQVLVDALPVAPGLTVIEAPTGSGKTETALAYAWKLIDQQIADSVIFALPTQATANAMLTRMEASASHLFSSPNLILAHGNSRFNHLFQSIKSRAITEQGQEEAWVQCCQWLSQSNKKVFLGQIGVCTIDQVLISVLPVKHRFIRGLGIGRSVLIVDEVHAYDTYMNGLLEAVLKAQADVGGSVILLSATLPMKQKQKLLDTYGLHTDPVENNSAYPLINWRGVNGAQRFDLLAHPEQLPPRFSIQPEPICLADMLPDLTMLERMIAAANAGAQVCLICNLVDVAQVCYQRLKELNNTQVDIDLFHARFTLNDRREKENRVISNFGKNGKRNVGRILVATQVVEQSLDVDFDWLITQHCPADLLFQRLGRLHRHHRKYRPAGFEIPVATILLPDGEGYGRHEHIYSNVRVMWRTQQHIEELNGASLFFPDAYRQWLDSIYDDAEMDEPEWVGNGMDKFESAECEKRFKARKVLQWAEEYSLQDNDETILAVTRDGEMSLPLLPYVQTSSGKQLLDGQVYEDLSHEQQYEALALNRVNVPFTWKRSFSEVVDEDGLLWLEGKQNLDGWVWQGNSIVITYTGDEGMTRVIPANPK
# chain 2: MSNFINIHVLISHSPSCLNRDDMNMQKDAIFGGKRRVRISSQSLKRAMRKSGYYAQNIGESSLRTIHLAQLRDVLRQKLGERFDQKIIDKTLALLSGKSVDEAEKISADAVTPWVVGEIAWFCEQVAKAEADNLDDKKLLKVLKEDIAAIRVNLQQGVDIALSGRMATSGMMTELGKVDGAMSIAHAITTHQVDSDIDWFTAVDDLQEQGSAHLGTQEFSSGVFYRYANINLAQLQENLGGASREQALEIATHVVHMLATEVPGAKQRTYAAFNPADMVMVNFSDMPLSMANAFEKAVKAKDGFLQPSIQAFNQYWDRVANGYGLNGAAAQFSLSDVDPITAQVKQMPTLEQLKSWVRNNGEA
# B2: Cas3 of E. coli K12 Type I-E CRISPR/Cas complex [E. coli K12] / Cas1 of E. coli K12 Type I-E CRISPR/Cas complex [E. coli K12] (parent complex)
# chain 1: B1 chain 1
# chain 2: MTWLPLNPIPLKDRVSMIFLQYGQIDVIDGAFVLIDKTGIRTHIPVGSVACIMLEPGTRVSHAAVRLAAQVGTLLVWVGEAGVRVYASGQPGGARSDKLLYQAKLALDEDLRLKVVRKMFELRFGEPAPARRSVEQLRGIEGSRVRATYALLAKQYGVTWNGRRYDPKDWEKGDTINQCISAATSCLYGVTEAAILAAGYAPAIGFVHTGKPLSFVYDIADIIKFDTVVPKAFEIARRNPGEPDREVRLACRDIFRSSKTLAKLIPLIEDVLAAGEIQPPAPPEDAQPVAIPLPVSLGDAGHRSS
# B3: Cas3 of E. coli K12 Type I-E CRISPR/Cas complex [E. coli K12] / Cas11 of E. coli K12 Type I-E CRISPR/Cas complex [E. coli K12] (parent complex)
# chain 1: B1 chain 1
# chain 2: MADEIDAMALYRAWQQLDNGSCAQIRRVSEPDELRDIPAFYRLVQPFGWENPRHQQALLRMVFCLSAGKNVIRHQDKKSEQTTGISLGRALANSGRINERRIFQLIRADRTADMVQLRRLLTHAEPVLDWPLMARMLTWWGKRERQQLLEDFVLTTNKNA
# B4: Cas3 of E. coli K12 Type I-E CRISPR/Cas complex [E. coli K12] / Cas8 of E. coli K12 Type I-E CRISPR/Cas complex [E. coli K12] (parent complex)
# chain 1: B1 chain 1
# chain 2: MNLLIDNWIPVRPRNGGKVQIINLQSLYCSRDQWRLSLPRDDMELAALALLVCIGQIIAPAKDDVEFRHRIMNPLTEDEFQQLIAPWIDMFYLNHAEHPFMQTKGVKANDVTPMEKLLAGVSGATNCAFVNQPGQGEALCGGCTAIALFNQANQAPGFGGGFKSGLRGGTPVTTFVRGIDLRSTVLLNVLTLPRLQKQFPNESHTENQPTWIKPIKSNESIPASSIGFVRGLFWQPAHIELCDPIGIGKCSCCGQESNLRYTGFLKEKFTFTVNGLWPHPHSPCLVTVKKGEVEEKFLAFTTSAPSWTQISRVVVDKIIQNENGNRVAAVVNQFRNIAPQSPLELIMGGYRNNQASILERRHDVLMFNQGWQQYGNVINEIVTVGLGYKTALRKALYTFAEGFKNKDFKGAGVSVHETAERHFYRQSELLIPDVLANVNFSQADEVIADLRDKLHQLCEMLFNQSVAPYAHHPKLISTLALARATLYKHLRELKPQGGPSNG
# B5: Cas3 of E. coli K12 Type I-E CRISPR/Cas complex [E. coli K12] / Cas2 of E. coli K12 Type I-E CRISPR/Cas complex [E. coli K12] (parent complex)
# chain 1: B1 chain 1
# chain 2: MSMLVVVTENVPPRLRGRLAIWLLEVRAGVYVGDVSAKIREMIWEQIAGLAEEGNVVMAWATNTETGFEFQTFGLNRRTPVDLDGLRLVSFLPV
# B6: Cas3 of E. coli K12 Type I-E CRISPR/Cas complex [E. coli K12] / Cas5 of E. coli K12 Type I-E CRISPR/Cas complex [E. coli K12] (parent complex)
# chain 1: B1 chain 1
# chain 2: MRSYLILRLAGPMQAWGQPTFEGTRPTGRFPTRSGLLGLLGACLGIQRDDTSSLQALSESVQFAVRCDELILDDRRVSVTGLRDYHTVLGAREDYRGLKSHETIQTWREYLCDASFTVALWLTPHATMVISELEKAVLKPRYTPYLGRRSCPLTHPLFLGTCQASDPQKALLNYEPVGGDIYSEESVTGHHLKFTARDEPMITLPRQFASREWYVIKGGMDVSQ
# B7: Cas3 of E. coli K12 Type I-E CRISPR/Cas complex [E. coli K12] / Cas6 of E. coli K12 Type I-E CRISPR/Cas complex [E. coli K12] (parent complex)
# chain 1: B1 chain 1
# chain 2: MYLSKVIIARAWSRDLYQLHQGLWHLFPNRPDAARDFLFHVEKRNTPEGCHVLLQSAQMPVSTAVATVIKTKQVEFQLQVGVPLYFRLRANPIKTILDNQKRLDSKGNIKRCRVPLIKEAEQIAWLQRKLGNAARVEDVHPISERPQYFSGDGKSGKIQTVCFEGVLTINDAPALIDLVQQGIGPAKSMGCGLLSLAPL
# Variants of: B1
# Experiment: SPEC system (split protease-E. coli ClpXP) in E. coli cells; parent: 100; read off a plot
row,percent of parent,Variant
1,~120%,chain 1 K320N
2,~25%,"chain 1 S483A, chain 1 T485A"

# Second part, the variant before the results:
row,Variant,percent of parent
1,chain 1 K78A,~73%
2,chain 1 D452N,~120%

# Variants of: B2
# Experiment: as above
row,percent of parent,Variant
1,~120%,chain 1 K320N
2,~110%,"chain 1 S483A, chain 1 T485A"

# Further lines, the variant ahead of its results:
row,Variant,percent of parent
1,chain 1 K78A,~50%
2,chain 1 H74A,~60%
3,chain 1 D452N,~130%

# Variants of: B3
# Experiment: as above
row,percent of parent,Variant
1,~110%,chain 1 H74A
2,~110%,chain 1 K78A
3,~73%,"chain 1 S483A, chain 1 T485A"

# Variants of: B4
# Experiment: as above
row,percent of parent,Variant
1,~82%,chain 1 H74A
2,~97%,"chain 1 S483A, chain 1 T485A"
3,~83%,chain 1 K320N

# Variants of: B5
# Experiment: as above
row,percent of parent,Variant
1,~110%,chain 1 K78A
2,~130%,chain 1 K320N

# More lines, now with the values behind:
row,Variant,percent of parent
1,chain 1 D452N,~130%
2,chain 1 H74A,~130%

# Variants of: B6
# Experiment: as above
row,percent of parent,Variant
1,~110%,chain 1 D452N
2,~67%,chain 1 K78A
3,~45%,chain 1 H74A

# Variants of: B7
# Experiment: as above
row,percent of parent,Variant
1,~95%,chain 1 K78A
2,~130%,"chain 1 S483A, chain 1 T485A"
3,~120%,chain 1 K320N

# Further lines, the variant ahead of its results:
row,Variant,percent of parent
1,chain 1 D75A,~110%
2,chain 1 D452N,~140%
3,chain 1 H74A,~150%
